Tests used:
[1] = test system: T1, Myc-tagged deltaRGS construct of Xaxin (amino acid residues 1-80 fused to residues 290-842)
T1 sequence: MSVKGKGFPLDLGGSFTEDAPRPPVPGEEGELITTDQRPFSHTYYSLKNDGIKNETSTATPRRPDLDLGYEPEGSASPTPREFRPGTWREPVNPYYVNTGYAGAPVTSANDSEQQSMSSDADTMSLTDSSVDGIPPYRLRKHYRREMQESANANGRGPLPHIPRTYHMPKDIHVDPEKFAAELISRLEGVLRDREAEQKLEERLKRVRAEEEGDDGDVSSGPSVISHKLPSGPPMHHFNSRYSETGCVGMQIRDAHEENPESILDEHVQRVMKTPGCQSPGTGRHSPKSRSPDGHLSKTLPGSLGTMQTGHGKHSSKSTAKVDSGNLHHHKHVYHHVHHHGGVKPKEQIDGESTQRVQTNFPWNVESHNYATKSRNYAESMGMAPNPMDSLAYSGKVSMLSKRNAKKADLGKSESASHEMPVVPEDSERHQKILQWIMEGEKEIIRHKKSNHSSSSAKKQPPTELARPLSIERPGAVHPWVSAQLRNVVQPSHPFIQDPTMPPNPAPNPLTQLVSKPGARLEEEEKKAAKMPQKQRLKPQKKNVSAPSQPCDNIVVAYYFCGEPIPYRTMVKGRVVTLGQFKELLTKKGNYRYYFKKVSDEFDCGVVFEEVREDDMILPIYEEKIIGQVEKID

[2] = test system: Myc-tagged deltaDIX construct of Xaxin (amino acid residues 1-778)
[3] = test system: Myc-tagged N-term fragment of Xaxin (amino acid residues 63-288)
Myc-tagged N-term fragment of Xaxin (amino acid residues 63-288), sequence (chain, as listed by the source): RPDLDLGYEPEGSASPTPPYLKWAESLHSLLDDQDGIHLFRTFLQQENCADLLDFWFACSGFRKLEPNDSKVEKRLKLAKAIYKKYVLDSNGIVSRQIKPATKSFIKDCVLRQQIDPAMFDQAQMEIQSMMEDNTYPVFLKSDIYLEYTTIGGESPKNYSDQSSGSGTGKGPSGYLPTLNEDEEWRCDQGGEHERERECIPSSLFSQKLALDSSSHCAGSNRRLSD

[4] = test system: T2, Myc-tagged GID-1 fragment of Xaxin (amino acid residues 277-545)
T2 sequence: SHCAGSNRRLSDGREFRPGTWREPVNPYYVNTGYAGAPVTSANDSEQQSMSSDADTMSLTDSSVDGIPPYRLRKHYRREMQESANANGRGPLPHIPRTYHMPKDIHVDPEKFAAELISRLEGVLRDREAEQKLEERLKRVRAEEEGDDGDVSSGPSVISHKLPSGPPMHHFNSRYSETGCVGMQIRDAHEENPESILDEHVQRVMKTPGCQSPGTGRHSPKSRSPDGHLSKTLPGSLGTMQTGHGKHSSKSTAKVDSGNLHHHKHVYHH

[5] = test system: Myc-tagged full length Xenopus axin (FL Xaxin, amino acid residues 1-842)
[6] = test system: Myc-tagged deltaGID construct of Xaxin (amino acid residues 1-324 fused to residues 504-842)
[7] = test system: T3, Myc-tagged C-term fragment of Xaxin (amino acid residues 429-713)
T3 sequence: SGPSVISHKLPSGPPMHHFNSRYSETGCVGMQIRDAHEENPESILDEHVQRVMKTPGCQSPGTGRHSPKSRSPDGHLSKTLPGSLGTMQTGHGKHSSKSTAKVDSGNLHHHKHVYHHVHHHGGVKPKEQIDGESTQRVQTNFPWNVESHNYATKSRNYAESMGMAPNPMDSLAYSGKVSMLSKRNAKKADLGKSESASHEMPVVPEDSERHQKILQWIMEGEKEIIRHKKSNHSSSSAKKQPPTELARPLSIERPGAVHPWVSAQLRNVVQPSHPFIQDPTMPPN

GSK-3 beta (glycogen synthase kinase-3 beta) expressed in Xenopus oocytes
tau protein phosphorylation mediated by GSK-3 beta in Xenopus oocytes [1]: inhibited tau protein phosphorylation mediated by GSK-3 beta in a dose-dependent manner
GSK-3 beta activity (tau phosphorylation assay in Xenopus oocytes) [2]: partially inhibited GSK-3 beta activity
GSK-3 beta-mediated tau phosphorylation in Xenopus oocytes (PHF-1 immunoblot) [3]: had no effect on GSK-3 beta activity
GSK-3 beta mediated tau phosphorylation in Xenopus oocytes [4]: bound GSK-3 beta and inhibited GSK-3 beta mediated tau phosphorylation
GSK-3 beta-mediated tau phosphorylation in Xenopus oocytes (PHF-1 immunoblot) [4]: virtually complete inhibition of GSK-3 beta-mediated tau phosphorylation
GSK-3 beta-mediated tau phosphorylation in Xenopus oocytes (PHF-1 immunoblot) [5]: had no discernible effect on tau phosphorylation
GSK-3 beta activity in the tau-phosphorylation assay in Xenopus oocytes [6]: had no discernible effect on GSK-3 beta activity in the tau-phosphorylation assay
GSK-3 beta-mediated tau phosphorylation in Xenopus oocytes (PHF-1 immunoblot) [7]: had no effect on GSK-3 beta activity
